# Literature values in patent US11130803B2, “Isoform-selective TGFβ1 inhibitors and use thereof” (Scholar Rock, Inc., priority 2018, dated 2021).
# B1: decorin: proteoglycan abundant in skeletal muscle that inhibits TGFβ activity (protein, UniProt P07585 31-359, looked up)
# Decorin: DEASGIGPEVPDDRDFEPSLGPVCPFRCQCHLRVVQCSDLGLDKVPKDLPPDTTLLDLQNNKITEIKDGDFKNLKNLHALILVNNKISKVSPGAFTPLVKLERLYLSKNQLKELPEKMPKTLQELRAHENEITKVRKVTFNGLNQMIVIELGTNPLKSSGIENGAFQGMKKLSYIRIADTNITSIPQGLPPSLTELHLDGNKISRVDAASLKGLNNLAKLGLSFNSISAVDNGSLANTPHLRELHLDNNKLTRVPGGLAEHKYIQVVYLHNNNISVVGSSDFCPPGHNTKKASYSGVSLFSNPVQYWEIQPSTFRCVYVRSAIQLGNYK
# What was measured:
# [1] = test system: non-diseased rat BAL; settings: cited from earlier work
# [2] = test system: human patients; settings: in vivo; cited from earlier work
# [3] = human, in vivo; cited from earlier work
# [4] = test system: mdx mice; settings: cited from earlier work
molecule,measurement,setting,value
c1ccc(-c2nn3c(c2-c2ccnc4cc(OCCN5CCOCC5)ccc24)CCC3)nc1 [LY2109761],TGFβ downstream tonic signaling,[1],inhibit TGFβ downstream tonic signaling
GC1008: human analog of 1D11; pan-TGFβ antibody,previously reported adverse events,[2],"leukocytosis (grade 3), fatigue (grade 3), hypoxia (grade 3), asystole (grade 5), leukopenia (grade 1), recurrent, transient, tender erythematous, nodular skin lesions, suppurative dermatitis, and herpes zoster"
same,Exposure: DN Cmax,[3],DN Cmax ~(350 ng/mL)mg (ng/mL)mg
same,Exposure: Half life,[3],Half life: 21.7 d
B1,muscle fibrosis,[4],decreases muscle fibrosis
